Reference: patent US20160228570A1 (QUEEN MARY AND WESTFIELD COLLEGE, published 2016)

Assays:
[1] = molecular target: T1, native bovine serum albumin (bovine, UniProt P02769 25-607); experiment: ELISA (data not shown)
T1 construct: Control antigen; also called BSA; native BSA

[2] = molecular target: T2, free radical modified BSA (bovine, UniProt P02769 25-607, modified as CII (OH, HOCl, ONOO or 2M ribose); residues not stated); experiment: ELISA (data not shown)
T2 construct: Written as printed, as one entry

[3] = molecular target: T3, native non-modified collagen type II (CII) (bovine, UniProt P02459 201-1214); experiment: ELISA, purified scFv on coated antigen
T3 construct: also called native CII
Method: (§1) Screening for positive anti-modified CII phage clones was first performed by enzyme-linked immunosorbent assay (ELISA), as previously described (Harrison J. L, 1996). Microtiter plate (Nunc, Paisley, UK) wells were coated with 10 μg/ml native or modified CII and incubated with 100 μl phage suspension for 90 minutes. In addition, native and modified BSA were used as negative control. After removal of the supernatants, the amount of bound phage was determined using peroxidase-labeled anti-M13 antibodies (GE Healthcare: Ltd, Little Chalfont, Buckinghamshire) and developed by using 100 mM 3,3′5,5′ tetramethylbenzidine (TMB) as substrate. The reaction was monitored in an ELISA reader at 450 nm with a reference wavelength of 650 nm using GENios plate reader (TECAN, Theale Court, Reading UK) and Magellan software (TECAN, Theale Court, Reading UK)
(§2) The reactive phage clones obtained from E. coli TG-1 bacteria were used to infect E. coli HB2151 non-suppressor bacterial strain to obtain soluble scFv. […] Binding of purified scFv to modified CII was first analyzed by ELISA as above except that mouse anti-myc tag antibody (Santa Cruz Biotechnology, INC, Wembley, UK) followed by anti-mouse-HRP conjugate (Sigma, Dorset, UK) were used to probe bound scFv.

HOCl modified CII = molecular target: T4, HOCl modified CII (bovine, UniProt P02459 201-1214, modified with HOCl; residues not stated); experiment: ELISA, purified scFv on coated antigen
T4 construct: also called HOCl-CII; HOCl-Collagen II
Method: as §1, §2

ribose-modified CII = molecular target: T5, ribose-modified CII (bovine, UniProt P02459 201-1214, glycated with 2M ribose, overnight at 37 C; residues not stated); experiment: ELISA, purified scFv on coated antigen
T5 construct: also called Ribose-CII; glycated CII
Method: as §1, §2

peroxynitrated CII = molecular target: T6, peroxynitrated CII (bovine, UniProt P02459 201-1214, modified with peroxynitrite (ONOO); residues not stated); experiment: ELISA, purified scFv on coated antigen
T6 construct: also called CII modified with ONOO; peroxynitrite-modified CII
Method: as §1, §2

Measured: binding result

T1 sequence (P02769 25-607 limits assumed): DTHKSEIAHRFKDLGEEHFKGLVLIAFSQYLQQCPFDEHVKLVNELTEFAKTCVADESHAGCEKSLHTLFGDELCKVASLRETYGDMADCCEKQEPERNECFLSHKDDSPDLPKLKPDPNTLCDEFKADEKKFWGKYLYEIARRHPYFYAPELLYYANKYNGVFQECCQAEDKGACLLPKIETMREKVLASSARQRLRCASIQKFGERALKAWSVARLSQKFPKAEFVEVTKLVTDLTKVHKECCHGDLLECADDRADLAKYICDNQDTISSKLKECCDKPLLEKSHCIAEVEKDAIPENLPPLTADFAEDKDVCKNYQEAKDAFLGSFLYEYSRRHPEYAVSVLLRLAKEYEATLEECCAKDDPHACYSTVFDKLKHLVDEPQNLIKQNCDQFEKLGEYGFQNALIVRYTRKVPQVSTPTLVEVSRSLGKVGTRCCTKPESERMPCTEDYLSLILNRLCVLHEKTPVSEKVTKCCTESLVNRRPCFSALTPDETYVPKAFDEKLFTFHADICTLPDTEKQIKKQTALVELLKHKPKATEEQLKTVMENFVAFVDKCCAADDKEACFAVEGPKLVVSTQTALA
T2 sequence (P02769 25-607 limits assumed): as above
T4 sequence (P02459 201-1214): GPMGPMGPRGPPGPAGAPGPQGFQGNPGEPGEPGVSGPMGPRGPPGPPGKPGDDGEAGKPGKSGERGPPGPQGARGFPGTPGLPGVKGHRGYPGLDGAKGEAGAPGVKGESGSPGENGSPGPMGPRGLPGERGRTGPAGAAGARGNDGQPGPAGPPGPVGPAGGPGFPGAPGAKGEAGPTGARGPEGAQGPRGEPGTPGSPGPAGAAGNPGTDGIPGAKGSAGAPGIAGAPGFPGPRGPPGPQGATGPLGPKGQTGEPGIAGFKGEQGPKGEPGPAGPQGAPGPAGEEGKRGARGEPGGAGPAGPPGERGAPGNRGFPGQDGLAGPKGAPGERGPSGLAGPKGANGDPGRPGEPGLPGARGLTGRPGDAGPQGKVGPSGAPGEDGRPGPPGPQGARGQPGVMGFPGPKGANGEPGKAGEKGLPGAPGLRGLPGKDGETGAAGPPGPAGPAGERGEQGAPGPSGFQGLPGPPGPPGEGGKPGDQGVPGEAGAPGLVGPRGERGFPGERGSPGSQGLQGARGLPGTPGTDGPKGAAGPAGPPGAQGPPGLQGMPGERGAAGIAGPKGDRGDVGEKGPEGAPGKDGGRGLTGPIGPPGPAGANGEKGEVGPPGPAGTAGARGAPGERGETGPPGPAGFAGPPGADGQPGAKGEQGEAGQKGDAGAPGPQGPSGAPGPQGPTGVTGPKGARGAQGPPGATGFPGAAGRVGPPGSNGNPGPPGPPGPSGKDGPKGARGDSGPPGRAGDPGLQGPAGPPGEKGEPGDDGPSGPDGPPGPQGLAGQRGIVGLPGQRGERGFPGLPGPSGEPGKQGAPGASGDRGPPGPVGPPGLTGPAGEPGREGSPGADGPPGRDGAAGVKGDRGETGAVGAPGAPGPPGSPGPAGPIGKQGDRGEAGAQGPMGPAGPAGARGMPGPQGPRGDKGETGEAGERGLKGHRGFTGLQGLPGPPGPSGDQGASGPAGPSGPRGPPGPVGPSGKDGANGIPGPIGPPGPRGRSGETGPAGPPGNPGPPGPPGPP
T3 sequence (P02459 201-1214): as above
T5 sequence (P02459 201-1214): as above
T6 sequence (P02459 201-1214): as above

B1: scFv 12E (scFv, not shown: small tags and cut ends)
scFv: EVQLLESGGGLVQPGGSLRLSCAASGFTFSSYAMSWVRQAPGKGLEWVSSINDSGTTTYYADSVKGRFTISRDNSKNTLYLQMNSLRAEDTAVYYCAKNYSAFDYWGQGTLVTVSSGGGGSGGGGSGGGGSTDIQMTQSPSSLSASVGDRVTITCRASQSISSYLNWYQQKPGKAPKLLIYAASDLQSGVPSRFSGSGSGTDFTLTISSLQPEDFATYYCQQSDSAPTTFGQGTKVEIKR
notes: Purified soluble scFv; also called clone 12E
no binding: all assays above

B2: scFv 6-11D (scFv, not shown: small tags and cut ends)
scFv: EVQLLESGGGLVQPGGSLRLSCAASGFTFSSYAMSWVRQAPGKGLEWVSSIDTGGSYTDYADSVKGRFTISRDNSKNTLYLQMNSLRAEDTAVYYCAKSYTTFDYWGQGTLVTVSSGGGGSGGGGSGGGGSTDIQMTQSPSSLSASVGDRVTITCRASQSISSYLNWYQQKPGKAPKLLIYSASYLQSGVPSRFSGSGSGTDFTLTISSLQPEDFATYYCQQGSNSPTTFGQGTKVEIKR
notes: also called clone 6-11D; 4-5H
no binding: [1] | [2]

B3: scFv 1-11E (scFv, not shown: large carriers; small tags and cut ends)
scFv: EVQLLESGGGLVQPGGSLRLSCAASGFTFSSYAMSWVRQAPGKGLEWVSSIDDSGATTYYADSVKGRFTISRDNSKNTLYLQMNSLRAEDTAVYYCAKNYSSFDYWGQGTLVTVSSGGGGSGGGGSGGGGSTDIQMTQSPSSLSASVGDRVTITCRASQSISSYLNWYQQKPGKAPKLLIYYASSLQSGVPSRFSGSGSGTDFTLTISSLQPEDFATYYCQQAANYPTTFGQGTKVEIK
notes: its first MA and last DI may come from cloning into the fusion; also called clone 1-11E; 1-2F
no binding: [1] | [2]
